This passage reports kon results from patent US20180251570A1 (Bayer, published 2018).

For this experiment, the target named is T1, human tissue factor pathway inhibitor (TFPI) (human, UniProt P10646 29-304, limits assumed).
T1 construct: also called human TFPI (American Diagnostica)
T1 sequence (looked up): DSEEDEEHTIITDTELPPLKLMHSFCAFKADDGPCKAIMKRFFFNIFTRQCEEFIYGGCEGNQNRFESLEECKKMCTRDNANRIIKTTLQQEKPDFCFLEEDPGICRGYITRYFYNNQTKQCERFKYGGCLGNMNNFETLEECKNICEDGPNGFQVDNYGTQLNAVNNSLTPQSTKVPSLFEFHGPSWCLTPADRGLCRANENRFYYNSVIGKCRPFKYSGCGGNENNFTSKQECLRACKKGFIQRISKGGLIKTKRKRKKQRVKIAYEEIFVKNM
The experiment can be described thus: BIACORE kinetics, CM4 chip with low density of amine-coupled human TFPI, antibody injected. How it is done: A CM4 sensor chip was immobilized with a low density of human TFPI using an amine coupling kit (GE HealthCare). Kinetic assays of parental IgG and IgG-linker1 were conducted using different concentration of the antibodies, followed by regeneration with pH 1.5 glycine buffer. The parental IgG and IgG-linker1 antibodies at a concentration of 1 μg were digested with 1 unit of biotinylated thrombin (Novagen) for 1 hr at 37° C. The antibodies with or without digestion were injected to a BIACORE™ system for TFPI-binding analysis.
A general note: SPR reads the build-up and loss of mass on a sensor chip optically.

B1: parental IgG (parental anti-TFPI antibody) (antibody)
heavy: EVQLVESGGGLVQPGGSLRLSCAASGFTFSSYGMDWVRQAPGKGLEWVSSIRGSRGSTYYADSVKGRFTISRDNSKNTLYLQMNSLRAEDTAVYYCARLYRYWFDYWGQGTLVTVSSASTKGPSVFPLAPCSRSTSESTAALGCLVKDYFPEPVTVSWNSGALTSGVHTFPAVLQSSGLYSLSSVVTVPSSNFGTQTYTCNVDHKPSNTKVDKTVERKCCVECPPCPAPPVAGPSVFLFPPKPKDTLMISRTPEVTCVVVDVSHEDPEVQFNWYVDGVEVHNAKTKPREEQFNSTFRVVSVLTVVHQDWLNGKEYKCKVSNKGLPAPIEKTISKTKGQPREPQVYTLPPSREEMTKNQVSLTCLVKGFYPSDIAVEWESNGQPENNYKTTPPMLDSDGSFFLYSKLTVDKSRWQQGNVFSCSVMHEALHNHYTQKSLSLSPG
light: SYELTQPPSVSVSPGQTARITCSGDNLPKYYAHWYQQKPGQAPVVVIFYDVNRPSGIPERFSGSNSGNTATLTISGTQAMDEADYYCQAWWSSTPVFGGGTKLTVLGQPKAAPSVTLFPPSSEELQANKATLVCLISDFYPGAVTVAWKADSSPVKAGVETTTPSKQSNNKYAASSYLSLTPEQWKSHRSYSCQVTHEGSTVEKTVAPTECS
notes: Expressed in HEK293 6E cells; also called Parent IgG; WT antibody
For B1, the kon was 1.54e+06 M⁻¹ s⁻¹.

B2: IgG-linker1 (protease-regulated anti-TFPI IgG, undigested) (antibody)
light: SYELTQPPSVSVSPGQTARITCSGDNLPKYYAHWYQQKPGQAPVVVIFYDVNRPSGIPERFSGSNSGNTATLTISGTQAMDEADYYCQAWWSSTPVFGGGTKLTVLGGGGSLVPRGSGGGGSGQPKAAPSVTLFPPSSEELQANKATLVCLISDFYPGAVTVAWKADSSPVKAGVETTTPSKQSNNKYAASSYLSLTPEQWKSHRSYSCQVTHEGSTVEKTVAPTECS
heavy: EVQLVESGGGLVQPGGSLRLSCAASGFTFSSYGMDWVRQAPGKGLEWVSSIRGSRGSTYYADSVKGRFTISRDNSKNTLYLQMNSLRAEDTAVYYCARLYRYWFDYWGQGTLVTVSSASGGGGSLVPRGSGGGGSTKGPSVFPLAPCSRSTSESTAALGCLVKDYFPEPVTVSWNSGALTSGVHTFPAVLQSSGLYSLSSVVTVPSSNFGTQTYTCNVDHKPSNTKVDKTVERKCCVECPPCPAPPVAGPSVFLFPPKPKDTLMISRTPEVTCVVVDVSHEDPEVQFNWYVDGVEVHNAKTKPREEQFNSTFRVVSVLTVVHQDWLNGKEYKCKVSNKGLPAPIEKTISKTKGQPREPQVYTLPPSREEMTKNQVSLTCLVKGFYPSDIAVEWESNGQPENNYKTTPPMLDSDGSFFLYSKLTVDKSRWQQGNVFSCSVMHEALHNHYTQKSLSLSPG
notes: Expressed in HEK293 6E cells; also called IgG2-linker1
The molecule B2 yielded a kon of 1.9e+06 M⁻¹ s⁻¹.

As usually defined, the kon is a measure of how fast the partners come together. A low value points to slower complex formation.
